{"source": "paper doi:10.1101/2021.12.15.472864", "about": "(bioRxiv, 2021)", "molecular_target": "SARS-CoV-2 spike receptor-binding domain (RBD), residues 333-529 (SARS-CoV-2, UniProt P0DTC2)", "assay": "crystal structure", "data": [{"binder": "ADI-62113 Fab (Fab, V domains shown) VH: QVQLQQSGAEVKKPGASVKLSCKASGYTFSVFPIHWVRQAPGQRLEWMGWHNAGDGDTKYSQKFQGRVTIISDTSASTAYMELSSLKSEDTAVYYCARAARPYYDRRGYFFRADYFQHWGQGTLVTVSS VL: DIQVTQSPSSLSASVGDRVTITCQASQDIKNSLNWYQQKPGKAPKLLISDASNLETGVPSRFSGNGSGTDFTFTISSLQPEDIATYYCQQYDNLITFGPGTKVEIK", "values": [{"measurement": "binding result", "value": "binds"}]}]}
